Assay [1] concerns the target Soluble complex of 125I-IL-12 crosslinked to human IL-12R (human) (UniProt P29460). The assay can be described thus: immunoprecipitation of the solubilized 125I-IL-12/IL-12R complex by the immobilized antibody; control.
For assay [2], the target named is Detergent solubilized IL-12R from extracts of PHA-activated PBMC, Kit-225 or K6 cells (human). The assay can be described thus: steady state binding of 125I-IL-12 to proteins immunoprecipitated by immobilized 2-4E6 from solubilized cell extracts, Scatchard (FIG. 14, K6 cells).
The target in assay [3] is Natural human IL-12 receptor on IL-12R positive human cells (PHA-activated PBMC, K6, Kit-225, YT cells) (human). The assay can be described thus: steady state 125I-IL-12 binding to K6 cells, Scatchard, third of 3 sites.
For assay [4] the target is unchanged. The assay can be described thus: steady state 125I-IL-12 binding to Kit-225 cells, Scatchard, first of 3 sites.
The target is the same in assay [5]. Briefly: steady state 125I-IL-12 binding to YT cells, Scatchard, second of 2 sites.
The target is the same in assay [6]. The assay can be described thus: steady state 125I-IL-12 binding to K6 cells, Scatchard, first of 3 sites.
The target is the same in assay [7].
Assay [8] shares this target. Briefly: equilibrium binding of 125I-IL-12 to PHA-activated PBMCs, Kit-225 and K6 cells, Scatchard, third of 3 sites.
Assay [9] has the same target. The assay can be described thus: steady state 125I-IL-12 binding to PHA-PBMC (5-7 days), Scatchard, second of 3 sites.
Assay [10] has the same target. Briefly: steady state 125I-IL-12 binding to K6 cells, Scatchard, second of 3 sites.
For assay [11] the target is unchanged. Briefly: steady state 125I-IL-12 binding to YT cells, Scatchard, first of 2 sites.
For assay [12] the target is unchanged. Briefly: steady state 125I-IL-12 binding to Kit-225 cells, Scatchard, third of 3 sites.
The target is the same in assay [13]. The assay can be described thus: steady state 125I-IL-12 binding to Kit-225 cells, Scatchard, second of 3 sites.
Assay [14] shares this target. Briefly: steady state 125I-IL-12 binding to PHA-PBMC (5-7 days), Scatchard, third of 3 sites.
Assay [15] has the same target. Briefly: equilibrium binding of 125I-IL-12 to PHA-activated PBMCs, Kit-225 and K6 cells, Scatchard, second of 3 sites.
Assay [16] shares this target. The assay can be described thus: equilibrium binding of 125I-IL-12 to PHA-activated PBMCs, Kit-225 and K6 cells, Scatchard, first of 3 sites.
For assay [17] the target is unchanged. Briefly: steady state 125I-IL-12 binding to PHA-PBMC (5-7 days), Scatchard, first of 3 sites.

pKd: −log10 of the molar value. Several values for one entry are separate records, joined by “and”; a condition that tells them apart may be missing. Equal entries are not always repeated.

Broadly, the pKd is the Kd on a negative log10 scale, so that one unit is a factor of ten.

Chain of Recombinant human IL-12 (Interleukin-12) (P29460 23-328): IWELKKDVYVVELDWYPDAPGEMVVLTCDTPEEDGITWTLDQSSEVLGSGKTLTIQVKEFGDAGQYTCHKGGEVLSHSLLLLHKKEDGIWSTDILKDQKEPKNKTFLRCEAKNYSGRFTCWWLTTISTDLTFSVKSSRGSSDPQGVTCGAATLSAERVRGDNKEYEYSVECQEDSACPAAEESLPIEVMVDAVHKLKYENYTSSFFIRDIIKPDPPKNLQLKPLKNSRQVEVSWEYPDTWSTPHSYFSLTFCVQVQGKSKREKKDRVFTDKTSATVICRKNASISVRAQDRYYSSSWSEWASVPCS
Chain of Recombinant human IL-12 (Interleukin-12) (chain): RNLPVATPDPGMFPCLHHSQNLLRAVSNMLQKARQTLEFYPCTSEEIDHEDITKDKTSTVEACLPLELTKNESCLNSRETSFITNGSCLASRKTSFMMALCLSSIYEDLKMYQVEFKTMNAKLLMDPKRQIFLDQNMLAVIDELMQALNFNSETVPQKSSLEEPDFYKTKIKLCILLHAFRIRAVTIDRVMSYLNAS

Take Control mAb (Table 1) (antibody): the I.P. assay (cpm bound) in assay [1] is 402 cpm.

On to “Recombinant human IL-12 (Interleukin-12) (from UniProt P29460) (ligand)”, for which the negative-log Kd (pKd) is 9.73 in assay [2]; 8.62 in assay [3]; 10.64 in assay [4]; 9.96 in assay [5]; 10.80 in assay [6]; 8.70 and 8.22 in assay [8]. In addition, the negative logarithm of the Kd (pKd) in assay [9] is 10.08; in assay [10] it was 10.24; in assay [11], 11.22; in [12] it was 8.63; in [13], 9.68; in [14], 8.74. Moreover, the pKd in [15] was 10.30 and 9.70; in assay [16], 11.30 and 10.70; in assay [17], 10.74. Besides, the 3H-TdR incorporation of PHA-activated PBMC in assay [7] is 38800 cpm.

(Values after US5831007.)
